# B1: Src-like-adapter 2 (Mus musculus), Q8R4L0 (parent)
# chain: MGSLSSRGKTSSPSPSSSGPDQEPVSMQPERHKVTAVALGSFPAGEQARLSLRLGEPLTIISEDGDWWTVQSEVSGREYHMPSVYVAKVAHGWLYEGLSREKAEELLLLPGNPGGAFLIRESQTRRGCYSLSVRLSRPASWDRIRHYRIQRLDNGWLYISPRLTFPSLHALVEHYSELADGICCPLREPCVLQKLGPLPGKDTPPPVTVPTSSLNWKKLDRSLLFLEAPASGEASLLSEGLRESLSSYISLAEDPLDDA
# Variants of: B1
# Conditions: with flt3_human FLT3, P36888
# Sequence of flt3_human FLT3, P36888 (P36888 whole entry): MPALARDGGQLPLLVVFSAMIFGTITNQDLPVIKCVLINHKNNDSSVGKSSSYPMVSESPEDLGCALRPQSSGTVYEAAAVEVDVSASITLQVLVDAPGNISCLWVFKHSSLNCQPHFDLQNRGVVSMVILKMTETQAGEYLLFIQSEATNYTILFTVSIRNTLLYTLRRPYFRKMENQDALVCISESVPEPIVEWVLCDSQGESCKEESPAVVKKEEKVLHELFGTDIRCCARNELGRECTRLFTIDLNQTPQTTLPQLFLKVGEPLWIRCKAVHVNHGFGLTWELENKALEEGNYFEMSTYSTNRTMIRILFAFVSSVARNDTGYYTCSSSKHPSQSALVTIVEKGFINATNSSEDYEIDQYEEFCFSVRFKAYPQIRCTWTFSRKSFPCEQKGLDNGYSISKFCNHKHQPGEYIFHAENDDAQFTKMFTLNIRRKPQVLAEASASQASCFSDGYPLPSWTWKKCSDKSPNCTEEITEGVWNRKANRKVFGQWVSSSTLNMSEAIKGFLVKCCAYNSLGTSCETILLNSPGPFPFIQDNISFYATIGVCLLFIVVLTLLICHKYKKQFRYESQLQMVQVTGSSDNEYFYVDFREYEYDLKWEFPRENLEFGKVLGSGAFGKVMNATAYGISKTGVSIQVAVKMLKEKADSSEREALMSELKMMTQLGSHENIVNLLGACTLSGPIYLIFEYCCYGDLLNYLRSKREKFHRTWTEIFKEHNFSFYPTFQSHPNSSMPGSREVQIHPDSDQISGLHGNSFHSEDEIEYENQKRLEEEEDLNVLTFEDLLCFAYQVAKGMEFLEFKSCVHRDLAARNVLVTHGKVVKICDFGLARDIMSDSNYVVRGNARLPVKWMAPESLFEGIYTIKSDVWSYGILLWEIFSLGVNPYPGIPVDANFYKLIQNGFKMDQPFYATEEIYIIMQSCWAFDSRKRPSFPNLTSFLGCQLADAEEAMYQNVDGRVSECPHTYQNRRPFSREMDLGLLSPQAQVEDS
row,effect of a mutation on the interaction,Variant
1,disrupting interaction,R120E
